Test [1] deals with airway epithelium of cultured trachea. In words: Histological examination of tracheal rings and airway epithelium. The test is classed as cell-based, mouse. Particulars: cultured overnight with FIZZ1 100 nM or LPS 0.1 ng/mL. The method, then: (§1) Histological examination of the structure of the airway and the status of the airway epithelial layer was performed in whole/sectional fresh trachea and as well as trachea cultured overnight with and without 100 nM FIZZ1. To understand the role of airway epithelium in regulating contractility of TSM, we measured the contractile response of tracheal rings after the epithelium was mechanically removed. Briefly, airway epithelial cells were removed by gently rubbing the intraluminal surface with polyethylene tubing (Becton Dickinson & Company, MD USA) connected to a Precision Glide needle (30G1/2) followed by perfusion with 1.0 ml air bubbles and then 1.0 ml K-H solution (re). All of the experimental tracheas were stained with H & E solution (CAT hematoxylin, Edgar Degas Eosin Working Solution, Biocare Medical, Concord, Calif.) and photographed under a light microscope at ×4.0 and ×20 magnification. Tracheal morphometric analysis was performed using a computer-based image analysis system consisting of a Nikon Eclipse E800 microscope (Melville, N.Y. USA) with a SPOT RT Slider camera (Diagnostic Instruments, Inc., Sterling Heights, Mich. USA).

In test [2] the test system is tracheal smooth muscle (TSM) of mouse tracheal rings. In words: ISO-induced relaxation of CCh-contracted tracheal rings. Particulars: normalized to 200 μM papaverine, PBS 46.29±2.85, n=6. The test is classed as cell-based. The protocol: Experimental animals were sacrificed by CO2 asphyxiation. Tracheas were surgically excised and cleaned of adherent connective tissue. Each trachea was sectioned into rings 3-4 mm in length and cultured in DMEM containing 1.0 M HEPES, 1.0 M NaOH, 5% of heat-inactivated FBS (Hy-Clone, Logan, Utah), 0.2M glutamine, 1.0 M CaCl2, 2.5 μg/ml fungizone, 5 μg/mL insulin, 100 U/mL penicillin and 100 μg/mL streptomycin) (DMEM-5%) for 24 hours. For in vitro experiments, the tracheal rings were cultured in DMEM in the absence and presence of either 10 or 100 nM recombinant FIZZ1 (Leinco Technologies, USA) for 24 hours.
(§2) Trachea were supported longitudinally by a plexiglas rod with a stainless steel pin into the base of a double-jacketed, glass organ bath filled with 10 mL of Krebs-Henseleit (K-H) solution (37° C.) of the following composition: 118 mM NaCl; 4.7 mM KCl; 1.2 mM KH2PO4; 11.1 mM Dextrose; 1.2 mM MgSO4; 2.8 mM CaCl2; and 25 mM NaHCO3. The solution was maintained at a pH of 7.40-7.45 and continuously gassed with a mixture of 5% CO2 and […] for the duration of each experiment. […] Initial tensions of TSM were set at approximately 0.5 g and maintained for 1 hour. Agonists were given after a steady state of tension had been reached.
[CCh]-response curves at the doses ranging from 3×10^−8 to 10^−5 M were completed in tracheal rings in absence and presence of either FIZZ1 or LPS (0.1 ng/mL). Concentrations of agonist were increased only when force responses to the previous concentration had stabilized. To examine TSM relaxant responses to isoprenaline (ISO), tracheal rings were first contracted by an addition of 1.0 μM CCh (Sigma, USA). Once the contraction had stabilized, ISO (Sigma, USA) was introduced into each bath at increasing concentrations (3×10^−8-10^−5 M). […]
(§3) At the end of each force measurement experiment, tracheas were blotted on a gauze pad and weighted. Results were calculated as milligram of tension per milligram of TSM weight (mg/mg) and expressed as an individual percentage (%) of 10 μM CCh- or 200 μM papaverine-induced tension response in PBS-treated trachea. […]

In test [3] the test system is TSM of epithelium-denuded trachea. In words: CCh-evoked force in trachea with mechanically removed epithelium EP(−). In kind it is cell-based, mouse. The protocol: as §1, with “Tracheal morphometric analysis was performed using a computer-based image analysis system consisting of a Nikon Eclipse E800 microscope (Melville, N.Y. USA) with a SPOT RT Slider camera (Diagnostic Instruments, Inc., Sterling Heights, Mich. USA).” left out
as §3

Test [4] relates to mouse tracheal epithelium cells (MTEC). In words: Nitrite in MTEC supernatants, Griess reaction. The test is classed as cell-based. Particulars: PBS, 0.1 ng/mL LPS or 100 nM rFIZZ1; any measured time point; N=3. The protocol: MTEC culture was performed by following the protocol of You et al. (“Growth and differentiation of mouse tracheal epithelial cells: selection of a proliferative population,” Am J Physiol Lung Cell Mol Physiol, 2002, 283:L 1315-1321) with minor modification. Briefly, tracheas were incubated in 1.5 mg/mL pronase (Roche Molecular Biochemicals) for 18 h at 4° C. Cells were treated with 0.5 mg/mL crude pancreatic DNase I (Sigma-Aldrich) on ice for 5 min. After incubation in tissue culture plates for 3-4 h in 5% CO2 at 37° C., nonadherent cells were incubated in a plate coated with type I rat tail collagen (BD Biosciences) in modified BEBM (Lonza, Md. USA) containing 10 μg/ml insulin, 5 μg/ml transferrin, 25 ng/ml epidermal growth factor, 5 μg/ml epinephrine and 30 μg/ml bovine pituitary extract, 0.5 nM Hydrocortisone, 25 ng/ml hEGF, 15 nM Triiodothyronine, 0.25 μg/ml Gentamicin/amphotericin-B and 0.01 μM retinoic acid in 5% CO2 at 37° C. […]
Nitric oxide (NO) was examined by measuring an end product, nitrite, using the Griess reaction (Xu et al., “Arginase and autoimmune inflammation in the central nervous system,” Immunology, 2003; 110:141-148). […] Absorbance was read at 540 nm in an automated microplate reader. […]
A general note: The Griess reaction detects nitrite, a stable product of nitric oxide.

The test system of test [5] is TSM of fresh tracheal rings. In words: Force response of fresh tracheas from intranasally challenged mice. In kind it is in vivo, mouse. Particulars: intranasal once a day×5 days, 100 nM rFIZZ1 or 0.1 ng/ml LPS; 24 hours after last treatment; PBS 100.00±14.63; N=5. The protocol:
For some experiments, ex vivo TSM tensions of fresh tracheal rings and BAL cell counts were measured at 24 hours after the last treatment of mice receiving an intranasal dose of either PBS, 0.1 ng/m: LPS or 100 nM rFIZZ1 (once a day×5 days).
as §2
At the end of each force measurement experiment, tracheas were blotted on a gauze pad and weighted. Results were calculated as milligram of tension per milligram of TSM weight (mg/mg) and expressed as an individual percentage (%) of 10 μM CCh- or 200 μM papaverine-induced tension response in PBS-treated trachea. For the control group, CCh (papaverine)-mediated responses were normalized to the mean value of the maximal responses.

B1: rFIZZ1: recombinant FIZZ1 (Leinco Technologies), mouse FIZZ1 protein, resistin-like molecule-α (protein, listed as Mus musculus)
chain: MKTTTCSLLICISLLQLMVPVNTDETIEIIVENKVKELLANIPANYPSTVTKTLSCTSVKTMNRWASCPAGMTATGCACGFACGSWEIQSGDTCNCLCLLV
modifications: (1)..(101) Murine FIZZ1 polypeptide
With B1, in test [1], the “smooth muscle layers, histology” value is “clear and histologically intact”. The “epithelial layer of tracheal rings, histology” value in test [1] (vs PBS) was “thinner and some of airway epithelium was denuded”. In addition, the figures for the “maximal relaxing force (%), ISO-induced” value in test [2] (10 nM rFIZZ1 pretreatment) and in test [2] (100 nM rFIZZ1 pretreatment) were 46.52±2.80% and 43.38±0.75%, respectively. For the same molecule, in test [3] (EP(−)/FIZZ1 100 nM, Mean ± SE, N=8), the “EP(−) TSM sensitivity to CCh, LogEC50” value is −0.91 ± 0.08 μM. For the same molecule, the “maximal tensions (%), CCh stimulation, EP(−) trachea” value in test [3] (denuded epithelium EP(−) with 100 nM FIZZ1, EP(+) 100±6.22) came out at 141.43±6.65%. Also, the “changes in nitrite concentration in MTEC supernatants” value in test [4] is reported as “not obvious”. Also, the “Maximal tensions (%) of TSM, CCh-evoked, fresh trachea” value in test [5] was 147.78±18.57%.

Values taken from patent US20090274696A1, “METHODS FOR TREATING INFLAMMATION” (WYETH, priority 2008, published 2009).
